Data taken from IntAct's records for PubMed 22178926.

B1: Integrin beta-3 (Homo sapiens), P05106 (parent)
chain: MRARPRPRPLWATVLALGALAGVGVGGPNICTTRGVSSCQQCLAVSPMCAWCSDEALPLGSPRCDLKENLLKDNCAPESIEFPVSEARVLEDRPLSDKGSGDSSQVTQVSPQRIALRLRPDDSKNFSIQVRQVEDYPVDIYYLMDLSYSMKDDLWSIQNLGTKLATQMRKLTSNLRIGFGAFVDKPVSPYMYISPPEALENPCYDMKTTCLPMFGYKHVLTLTDQVTRFNEEVKKQSVSRNRDAPEGGFDAIMQATVCDEKIGWRNDASHLLVFTTDAKTHIALDGRLAGIVQPNDGQCHVGSDNHYSASTTMDYPSLGLMTEKLSQKNINLIFAVTENVVNLYQNYSELIPGTTVGVLSMDSSNVLQLIVDAYGKIRSKVELEVRDLPEELSLSFNATCLNNEVIPGLKSCMGLKIGDTVSFSIEAKVRGCPQEKEKSFTIKPVGFKDSLIVQVTFDCDCACQAQAEPNSHRCNNGNGTFECGVCRCGPGWLGSQCECSEEDYRPSQQDECSPREGQPVCSQRGECLCGQCVCHSSDFGKITGKYCECDDFSCVRYKGEMCSGHGQCSCGDCLCDSDWTGYYCNCTTRTDTCMSSNGLLCSGRGKCECGSCVCIQPGSYGDTCEKCPTCPDACTFKKECVECKKFDRGALHDENTCNRYCRDEIESVKELKDTGKDAVNCTYKNEDDCVVRFQYYEDSSGKSILYVVEEPECPKGPDILVVLLSVMGAILLIGLAALLIWKLLITIHDRKEFAKFEEERARAKWDTANNPLYKEATSTFTNITYRGT

Variants of: B1
Conditions: with ITGA2B

| Variant | effect of a mutation on the interaction |
| --- | --- |
| K742A | disrupting interaction strength |
| K742E | disrupting interaction strength |
| K742C | disrupting interaction strength |
| K742S | disrupting interaction strength |
| K742L | disrupting interaction strength |
